This is an account of results in the supplement of paper PMC9112550, “Optimization of the antimicrobial peptide Bac7 by deep mutational scanning” (BMC Biology, 2022).
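Also: peptides expressed intracellularly from a pBAD plasmid library in pooled LB shake-flask culture, induced with 0.3% L-arabinose, DNA abundance read by NGS, three biological replicates, DESeq2 with apeglm shrinkage.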

This data set deals with Escherichia coli TOP10. Nature of the data set: shrunken log2 fold change of peptide-encoding DNA abundance (4.5 h post-induction vs induction); higher = less antimicrobial activity (less host growth inhibition). Conditions: time post-induction: 4.5 h; library: site-saturation at positions 5, 18, 19, 20.
RRIRIRPPRLPRPRPRPHGEPRP: the “shrunken log2 fold change” value was -0.178. For RRIRFRPPRLPRPRPRPEGTPRP, the “shrunken log2 fold change” value turned out to be 0.055. As for RRIRQRPPRLPRPRPRPEPRPRP, the “shrunken log2 fold change” value was determined as 0.508. With RRIRTRPPRLPRPRPRPANTPRP, the “shrunken log2 fold change” value was -0.181. In the case of RRIRIRPPRLPRPRPRPHLKPRP, the “shrunken log2 fold change” value is -0.358. For RRIRDRPPRLPRPRPRPGQLPRP, the “shrunken log2 fold change” value was -0.284. Regarding RRIRRRPPRLPRPRPRPPSYPRP, the “shrunken log2 fold change” value was 0.26. Take RRIRMRPPRLPRPRPRPVMIPRP: the “shrunken log2 fold change” value is 0.021. For the sequence RRIRYRPPRLPRPRPRPYWDPRP, the “shrunken log2 fold change” value was -0.483. As to RRIRLRPPRLPRPRPRPENFPRP, the “shrunken log2 fold change” value was found to be 0.0173. As for RRIRQRPPRLPRPRPRPIHFPRP, the “shrunken log2 fold change” value is -0.236. Consider RRIRHRPPRLPRPRPRPVYAPRP, for which the “shrunken log2 fold change” value is -0.375. In the case of RRIRNRPPRLPRPRPRPWFRPRP, the “shrunken log2 fold change” value is 0.0475. As to RRIRQRPPRLPRPRPRPAGKPRP, the “shrunken log2 fold change” value turned out to be 0.0246. Take RRIRWRPPRLPRPRPRPHQDPRP: the “shrunken log2 fold change” value was found to be 0.134. As for RRIRWRPPRLPRPRPRPVAKPRP, the “shrunken log2 fold change” value amounted to 0.404. In the case of RRIRYRPPRLPRPRPRPWFLPRP, the “shrunken log2 fold change” value was -1.18. Next, RRIRRRPPRLPRPRPRPWKLPRP: -0.0807; RRIRWRPPRLPRPRPRPTVNPRP: 0.0302. With RRIRLRPPRLPRPRPRPFRGPRP, the “shrunken log2 fold change” value was -0.0479.

RRIRARPPRLPRPRPRPMKMPRP: the “shrunken log2 fold change” value was 0.0994. For the sequence RRIRQRPPRLPRPRPRPILIPRP, the “shrunken log2 fold change” value was -0.521. On to RRIRRRPPRLPRPRPRPDLPPRP, for which the “shrunken log2 fold change” value was 0.0159. RRIRERPPRLPRPRPRPEIEPRP: the “shrunken log2 fold change” value stood at 0.0286. For the sequence RRIRNRPPRLPRPRPRPFWCPRP, the “shrunken log2 fold change” value was found to be 0.000145. On to RRIRLRPPRLPRPRPRPYIDPRP, for which the “shrunken log2 fold change” value is -0.00113.

RRIRFRPPRLPRPRPRPNPGPRP: the “shrunken log2 fold change” value was determined as 0.159.

Turning to RRIRQRPPRLPRPRPRPEYFPRP, the “shrunken log2 fold change” value is -0.0285. In the case of RRIRTRPPRLPRPRPRPCMCPRP, the “shrunken log2 fold change” value was -0.222.

Turning to RRIRERPPRLPRPRPRPYCWPRP, the “shrunken log2 fold change” value is -0.509. With RRIRQRPPRLPRPRPRPANIPRP, the “shrunken log2 fold change” value was -0.275.

As for RRIRLRPPRLPRPRPRPPHSPRP, the “shrunken log2 fold change” value stood at 0.0872. Regarding RRIRTRPPRLPRPRPRPSYNPRP, the “shrunken log2 fold change” value is -0.591. With RRIRIRPPRLPRPRPRPCNVPRP, the “shrunken log2 fold change” value was -0.449.

In the case of RRIRQRPPRLPRPRPRPGAEPRP, the “shrunken log2 fold change” value is 0.39. Consider RRIRSRPPRLPRPRPRPYHEPRP, for which the “shrunken log2 fold change” value was -1.19. As for RRIRSRPPRLPRPRPRPYQFPRP, the “shrunken log2 fold change” value was found to be 0.0245. On to RRIRNRPPRLPRPRPRPGFQPRP, for which the “shrunken log2 fold change” value was -0.0148. The value for RRIRVRPPRLPRPRPRPYYYPRP was -0.796.

Take RRIRFRPPRLPRPRPRPYHGPRP: the “shrunken log2 fold change” value is -0.114. Next, RRIRVRPPRLPRPRPRPVGFPRP: 0.158; RRIRIRPPRLPRPRPRPWWQPRP: 0.0732. As for RRIRKRPPRLPRPRPRPMNNPRP, the “shrunken log2 fold change” value is -0.0152. Regarding RRIRLRPPRLPRPRPRPISMPRP, the “shrunken log2 fold change” value is -0.801. For the sequence RRIRARPPRLPRPRPRPPQRPRP, the “shrunken log2 fold change” value is 1.16. Next, RRIRRRPPRLPRPRPRPFYAPRP: -0.0129; RRIRTRPPRLPRPRPRPGTIPRP: -0.0982. RRIRPRPPRLPRPRPRPNSQPRP: the “shrunken log2 fold change” value was -0.314.

Regarding RRIRGRPPRLPRPRPRPCICPRP, the “shrunken log2 fold change” value amounted to 0.102. As to RRIRYRPPRLPRPRPRPDCIPRP, the “shrunken log2 fold change” value was -0.501. With RRIRHRPPRLPRPRPRPLFSPRP, the “shrunken log2 fold change” value is -0.888. On to RRIRGRPPRLPRPRPRPRVTPRP, for which the “shrunken log2 fold change” value turned out to be 0.744. As to RRIRPRPPRLPRPRPRPMQQPRP, the “shrunken log2 fold change” value is -0.0524. Next, RRIRARPPRLPRPRPRPSRKPRP: 0.00605. RRIRERPPRLPRPRPRPLLTPRP: the “shrunken log2 fold change” value is -0.116. On to RRIRSRPPRLPRPRPRPDFMPRP, for which the “shrunken log2 fold change” value was -0.159. For the sequence RRIRSRPPRLPRPRPRPNPHPRP, the “shrunken log2 fold change” value is -0.139. As to RRIRHRPPRLPRPRPRPEDSPRP, the “shrunken log2 fold change” value is 0.0648.

Consider RRIRNRPPRLPRPRPRPTCAPRP, for which the “shrunken log2 fold change” value worked out at 0.161. Next, RRIRLRPPRLPRPRPRPFDLPRP: -0.0989; RRIRSRPPRLPRPRPRPSMNPRP: -0.454; RRIRMRPPRLPRPRPRPSKRPRP: 0.386.

RRIRLRPPRLPRPRPRPRFAPRP: the “shrunken log2 fold change” value was 0.374. Regarding RRIRYRPPRLPRPRPRPPQIPRP, the “shrunken log2 fold change” value was -0.178. RRIRARPPRLPRPRPRPWSIPRP: the “shrunken log2 fold change” value is -0.0906. In the case of RRIRFRPPRLPRPRPRPHQMPRP, the “shrunken log2 fold change” value is -0.037. On to RRIRCRPPRLPRPRPRPGYVPRP, for which the “shrunken log2 fold change” value is -0.0932.

For the sequence RRIRSRPPRLPRPRPRPVCQPRP, the “shrunken log2 fold change” value is -0.569. As for RRIRVRPPRLPRPRPRPLHVPRP, the “shrunken log2 fold change” value was -0.311. For the sequence RRIRRRPPRLPRPRPRPIVCPRP, the “shrunken log2 fold change” value was found to be 0.539. For RRIRLRPPRLPRPRPRPPESPRP, the “shrunken log2 fold change” value is 0.367.

On to RRIRNRPPRLPRPRPRPLACPRP, for which the “shrunken log2 fold change” value was 0.118.

As to RRIRPRPPRLPRPRPRPSYRPRP, the “shrunken log2 fold change” value was -0.342. As to RRIRQRPPRLPRPRPRPWYVPRP, the “shrunken log2 fold change” value was -0.0198. Next, RRIRQRPPRLPRPRPRPCQHPRP: 0.0738; RRIRGRPPRLPRPRPRPPEKPRP: 1.64; RRIRMRPPRLPRPRPRPNHKPRP: -0.391.

Turning to RRIRTRPPRLPRPRPRPGSPPRP, the “shrunken log2 fold change” value came out at 0.0989.

Regarding RRIRKRPPRLPRPRPRPQSLPRP, the “shrunken log2 fold change” value is -0.017. Take RRIRFRPPRLPRPRPRPHVIPRP: the “shrunken log2 fold change” value was -0.196. Consider RRIRQRPPRLPRPRPRPDFCPRP, for which the “shrunken log2 fold change” value was -0.129.

As for RRIRCRPPRLPRPRPRPTISPRP, the “shrunken log2 fold change” value was -0.381. Take RRIRVRPPRLPRPRPRPRRHPRP: the “shrunken log2 fold change” value is 0.252. As for RRIRGRPPRLPRPRPRPWTRPRP, the “shrunken log2 fold change” value is -0.0814. With RRIRVRPPRLPRPRPRPAQSPRP, the “shrunken log2 fold change” value was found to be 0.107. With RRIRTRPPRLPRPRPRPDEGPRP, the “shrunken log2 fold change” value is -0.0183. RRIRIRPPRLPRPRPRPFGEPRP: the “shrunken log2 fold change” value is -0.202. With RRIRCRPPRLPRPRPRPALAPRP, the “shrunken log2 fold change” value is 0.475. With RRIRGRPPRLPRPRPRPKKGPRP, the “shrunken log2 fold change” value came out at 0.765.

Turning to RRIRHRPPRLPRPRPRPGSEPRP, the “shrunken log2 fold change” value stood at 0.176.

With RRIRARPPRLPRPRPRPMDVPRP, the “shrunken log2 fold change” value worked out at 0.241. Consider RRIRGRPPRLPRPRPRPNEEPRP, for which the “shrunken log2 fold change” value came to 0.621.

Regarding RRIRLRPPRLPRPRPRPTVIPRP, the “shrunken log2 fold change” value is -0.059. On to RRIRRRPPRLPRPRPRPLALPRP, for which the “shrunken log2 fold change” value is 0.396.

With RRIRNRPPRLPRPRPRPEGCPRP, the “shrunken log2 fold change” value is -0.0205. Turning to RRIRHRPPRLPRPRPRPNDNPRP, the “shrunken log2 fold change” value is -1.03. On to RRIRVRPPRLPRPRPRPEWNPRP, for which the “shrunken log2 fold change” value was -0.272.

For the sequence RRIRHRPPRLPRPRPRPSSSPRP, the “shrunken log2 fold change” value is -0.258.

RRIRGRPPRLPRPRPRPMAWPRP: the “shrunken log2 fold change” value was 0.743. Consider RRIRPRPPRLPRPRPRPDVYPRP, for which the “shrunken log2 fold change” value is -0.194. Regarding RRIRRRPPRLPRPRPRPMGYPRP, the “shrunken log2 fold change” value was determined as 0.0381.

For RRIRWRPPRLPRPRPRPHPGPRP, the “shrunken log2 fold change” value is -0.0288.

For RRIRWRPPRLPRPRPRPPCSPRP, the “shrunken log2 fold change” value is -0.00461. Regarding RRIRQRPPRLPRPRPRPYHGPRP, the “shrunken log2 fold change” value was -0.126. As to RRIRQRPPRLPRPRPRPEVIPRP, the “shrunken log2 fold change” value was -0.00663.

As for RRIRKRPPRLPRPRPRPLLCPRP, the “shrunken log2 fold change” value was determined as 0.347.

In the case of RRIRERPPRLPRPRPRPITPPRP, the “shrunken log2 fold change” value is -0.628.

Regarding RRIRRRPPRLPRPRPRPQHPPRP, the “shrunken log2 fold change” value amounted to 0.526. On to RRIRIRPPRLPRPRPRPMYSPRP, for which the “shrunken log2 fold change” value was -0.11. Turning to RRIRHRPPRLPRPRPRPTAKPRP, the “shrunken log2 fold change” value is 0.0616. As to RRIRNRPPRLPRPRPRPVRIPRP, the “shrunken log2 fold change” value came out at 0.0513. The value for RRIRDRPPRLPRPRPRPLDAPRP was 0.0602; that for RRIRCRPPRLPRPRPRPNIAPRP was -0.275; that for RRIRGRPPRLPRPRPRPPTDPRP was 1.24. The value for RRIRNRPPRLPRPRPRPADHPRP was -0.0958; that for RRIRVRPPRLPRPRPRPVIYPRP was -0.39; that for RRIRFRPPRLPRPRPRPSGHPRP was -0.212.

On to RRIRQRPPRLPRPRPRPDSFPRP, for which the “shrunken log2 fold change” value was 0.0109. With RRIRMRPPRLPRPRPRPYYRPRP, the “shrunken log2 fold change” value stood at 0.0143. As to RRIRKRPPRLPRPRPRPKQCPRP, the “shrunken log2 fold change” value worked out at 0.0637. With RRIRKRPPRLPRPRPRPYTCPRP, the “shrunken log2 fold change” value is -0.175. On to RRIRSRPPRLPRPRPRPAVIPRP, for which the “shrunken log2 fold change” value is -0.593.

Consider RRIRTRPPRLPRPRPRPLSWPRP, for which the “shrunken log2 fold change” value is 0.0654. Regarding RRIRKRPPRLPRPRPRPQQCPRP, the “shrunken log2 fold change” value was -0.371. For RRIRYRPPRLPRPRPRPYWHPRP, the “shrunken log2 fold change” value is -0.451.
